Laboratory results as given in PMC3641580 (Cell, 2013).

Target: hMutSα (hMSH2-hMSH6), wild type (human, UniProt P43246 1-934; P52701 1-1360)
Test: pull-down

binding result: binds
B1: biotin-labeled histone H3 peptide with di-methylated K36 (peptide)
peptide: ARKSAPATGGVKKPHRYRP
modifications: dimethyl-lysine at K36; biotin (position not given)
